Results published in PMC3702404 (Nature structural & molecular biology, 2013).
“And” between values parts separate entries of the source, which are not always exact repeats. Equal values may be shown once. Read-outs that look alike come from different tables or passages of the source.

B1: AppA Δ399 C20S (domain or fragment, Rhodobacter sphaeroides)
chain: HDLEADVTMTGSDLVSCSYRSLAAPDLTLRDLLDIVETSQAHNARAQLTGALFYSQGVFFQWLEGRPAAVAEVMTHIQRDRRHSNVEILAEEPIAKRRFAGWHMQLSCSEADMRSLGLAESRQIVTVGRSLVADNTNIFSFDRIAAVRRFLSDVCAARTLAPDTPVEADTFALYALTEAQAGRSGRAKAVARLSDLLSTDPLGRLTEVEELLRAHAPTAADFARLFEACAERLTRALAEDRISRMQVTLAYSALQMALRRIHHLPDPQKSVGAVLVAGVPGHKPILEAALAAEMLRAVGWSTSVVHPESVAALAARLKTSRTSTLVVAPSLLEGTEQEADTLRFVSALRARTDLPGLSILVGGRLAQLPPSKLKDSGADAGFAHLALLPAALARVA
B2: PpsR ΔHTH (domain or fragment, Rhodobacter sphaeroides)
chain: LAGGSLPSLAPDLVRDLIATAADISLLVSQEGVVREVMANPHHPSFGQLSEWEGRPLEEVLTAESVAKFRLRSEGLEPGRGSVAVELNHIDPRSFEFPIRYILHRLPADRSILMLGRDLRPIAEVQQQLVAAQLAMERDYETQREMETRYRVVLDVSRDPMVLVSMSTGRIVDLNSAAGLLLGGVRQDLLGAAIAQEFEGRRRGEFMETMTNLAATESAAPVEVLARRSQKRLLVVPRVFRAAGERLLLCQIDPADATQPVGDELSENLARLYHEGVDGIVFSDADGTIRGANEAFLNMTDSSSLAAIRGRSIADFLARGSVDLRVLIDSVRRTGQLRLYATRLTTDFAGQIAAEISATWLDDRERPLLVLVVRDTSR
B3: PpsR (full-length) (natural protein, Rhodobacter sphaeroides, UniProt Q3J179 1-464, looked up)
chain: MLAGGSLPSLAPDLVRDLIATAADISLLVSQEGVVREVMANPHHPSFGQLSEWEGRPLEEVLTAESVAKFRLRSEGLEPGRGSVAVELNHIDPRSFEFPIRYILHRLPADRSILMLGRDLRPIAEVQQQLVAAQLAMERDYETQREMETRYRVVLDVSRDPMVLVSMSTGRIVDLNSAAGLLLGGVRQDLLGAAIAQEFEGRRRGEFMETMTNLAATESAAPVEVLARRSQKRLLVVPRVFRAAGERLLLCQIDPADATQPVGDELSENLARLYHEGVDGIVFSDADGTIRGANEAFLNMTDSSSLAAIRGRSIADFLARGSVDLRVLIDSVRRTGQLRLYATRLTTDFAGQIAAEISATWLDDRERPLLVLVVRDTSRADTMRRPVPATGVIDEPARNVMELVGNSTLKDIVAETTDVVEKMCIETALELTRNNRVAAAEMLSLSRQSLYVKLRKFGLLNKDE

How the values were obtained:
[1] = biological target: B3; test: native gel or EMSA
[2] = biological target: B3; test: MST
[3] = biological target: B3; test: native gel or EMSA; remark: listed apart in the source
[4] = biological target: B3; test: HDX-MS
[5] = biological target: the molecule itself; test: crystal structure
[6] = biological target: the molecule itself; test: MST

B1 was tested, and the EC50 [1] was 1400 nM, the Kd [2] was 1300 nM and the EC50 [3] was 2300 nM. For the same binder, the Kd [4] was roughly 1500 nM.

B2 was tested, and the “stoichiometry N” value [5] was 4 and 8.

For B3, the Kd [6] was 900 nM.
